Substitutions are numbered along the chain they refer to.

This note sets out measurements from patent US20240101645A1 (HENRY M JACKSON FOUNDATION FOR THE ADVANCEMENT OF MILITARY …, published 2024).

B1: COV_2196 (antibody, V domains shown)
VH: QVQLVQSGAEVKKPGASVKVSCKVSGYTLIELSMHWVRQAPGKGLEWMGGFDPEDAKTIYAQKFQGRVTMTEDTSTDTAYMELSSLTFEDTAVYYCATTPAFMAAAGDFDYWGQGTLVTVSS
VL: QPVLTQPSSVSVSPGQTATITCSGDVLAKKYARWFQQKPGQAPMLVIYKDTERPSGIPERFSGSSSGTTVTLTINGAQVEDEADYYCYSAAAWVFGGGTKLTVL
notes: human IgG1
B2: COV_2193 (antibody, V domains shown)
VH: QVQLVQSGAEVKKPGASVKVSCKVSGYTLTDLSMHWVRQTPGKGLEWMGGFDAEDGETIYAQNFQGRVTMTEDTSIDVAYMELSSLRSEDTAVYYCATGSVGPDYWGQGTLVTVSS
VL: SSELTQDPAVSVALGQTVRITCQGDSLRSYYASWFQQKPGQAPVLVIYLKNDRPSGIPDRFSGSSSGNTASLTITGAQAEDEADYYCNSRDSSGNHQVFGGGTKLTVL
notes: human IgG1
B3: COV_2134 (antibody, V domains shown)
VH: EVQLVESGGGVVQPGRSLRLSCAASGFIFSSYGMYWVRQAPGKGLEWVAVIWYDGSNKYYADSVKGRFTISRDNSKNTLYLQMNSLRAEDTAVYYCARDLSSSSGWDDYYYYYGMDVWGQGTTVTVSS
VL: not shown
notes: human IgG1
B4: COV_2057 (antibody, V domains shown)
VH: EVQLVQSGAEVKKPGESLKISCKGSGYSFISYWIAWVRQMPGKGLEWMGIIYPGDSDTTYSPSFQGQVTISADKSISTAYLQWSSLKASDTAIYYCARLLYYSDSSPLDSWGQGTLVTVSS
VL: DIQMTQSPSSLSASVGDRVTITCRASQSISTYLNWYQQKPGKAPNLLIYAASSLQSGVPSRFSGSGSGTDFTLTISSLQPEDFATYYCQQSHSTPRTFGPGTKVDIK
notes: human IgG1
B5: COV_1025 (antibody, V domains shown)
VH: QVQLVESGGGVVQPGRSLRLSCAASGFTFNTYAMHWVRQAPGKGLEWVAIISYDGGNKYYADSMKGRFTISRDNSKNTLYLQMNSLRAEDTAVYYCARARTGNYYYGMDVWGQGTTVTVSS
VL: not shown
notes: human IgG1
B6: COV_2103 (antibody, V domains shown)
VH: EVQLVESGGGVVQPGRSLRLSCGASGFTFSSYGIHWVRQAPGKGLDWVAVIWHDGSQKYYGDSVKGRFTISRDNSKNTLYLQMNRLRAEDTAVYYCARDSGDDYDSSGYPIGNAFDLWGQGTMVTVSS
VL: DIQMTQSPSTLSASVGDRVTITCRASQFINSWLAWYQQKPGKAPKLLIYKASSLETGVPSRFSGSGSGTEFTLTISSLQPDDFATYYCQQYNTYSFTFGPGTKVDIK
notes: human IgG1
B7: COV_2100 (antibody, V domains shown)
VH: EVQLVESGGGLVQPGGSLRLSCAASGFTFSSYDMYWVRQATGKGLEWVSAIGTAGDTYYPGSVKGRFTISRENAKNSLYLRMNSLRAGDTAVYFCARADKNTAMFFDYWGQGTLVTVSS
VL: DIQMTQSPSSLSASVGDRVTITCRASQNINNFLHWYQQKPGNAPKLLIYAASTLQSGVPSRFSGSGSGTDFTLTISSLQPEDFATYYCQQSYSTPGGTFGGGTKVEIK
notes: human IgG1
B8: COV_2137 (antibody, V domains shown)
VH: EVQLVESGGGLVKPGGSLRLSCAASGFTFSSYTMNWVRQAPGKGLEWVSSISSGSSFIYYADSLRGRFTISRDNAKNSLYLQMNSLRAEDTAVYYCARAPEPQSVIYAYWYFDLWGRGTLVTVSS
VL: QSALTQPASVSGSPGQSITFSCTGTSSDVGSYNLVSWYQQYPGKAPKLMIYEVNKRPSGVSNRFSGSKSGNTASLTISGLQAEDEADYYCCSYAGSSTFYVFGTGTKVTVLG
notes: human IgG1
B9: COV_1118 (antibody, V domains shown)
VH: EVQLVESGGGLVKPGGSLRLSCAASGFSFSNYNMNWVRQAPGKGLEWVSYISSSSSYIYYADSVKGRFTISRDNAKNSLYLQMNSLRGEDTAVYSCAREASGAYYFDRSGYFDYWGQGTLVTVSP
VL: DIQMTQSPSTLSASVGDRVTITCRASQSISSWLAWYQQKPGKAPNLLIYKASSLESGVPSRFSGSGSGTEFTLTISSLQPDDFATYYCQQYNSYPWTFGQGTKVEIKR
notes: human IgG1
B10: COV_1136 (antibody, V domains shown)
VH: B9 VH with S28T, N31D, Y32C, Y50S, S54R, G88A
VL: DIQMTQSPSTLSASVGDRVTITCRASQSISSWLAWYQQKPGKAPNLLIYKASSLESGVPSRFSGSGSGTEFTLTISSLQPDDFATYYCQQYNTYPWTFGQGTKVEIKR
notes: human IgG1
B11: COV_3088 (antibody, V domains shown)
VH: EVQLVESGGGLVQPGGSLRLSCAASGFTFSSYDMHWVRQATGKGLEWVSAIGTAGDTYYPGSVKGRFTISRENAKNSLYLQMNSLRAGDTAVYYCARGSGWPPFFDYWGQGTLVTVSS
VL: SYELTQPPSVSVAPGKTARITCGGNNIGSKSVHWYQQKPGQAPVLVIYYDSDRPSGIPERFSGSNSGNTATLTISRVEAGDEADYYCQVWDSSSDHHWVFGGGTKLTVL
notes: human IgG1
B12: COV_1050 (antibody, V domains shown)
VH: QVQLVESGGGVVQPGRSLRLSCAASRFTFSSYAMHWVRQAPGKGLEWVAVISFDGSNKYYADSVKGRFTIFRDNSKNTLSLQMNSLRTEDTAMYYCASPAGYYESLWGQGTLVTVSS
VL: SYELTQPPSVSVSPGQTARVTCSGDALSKQYGFWYQQKPGQAPTLVIYKDTERPSGIPERFSGSGSGTTVTLTISGVQAEDEADYYCQSTDNSGRWVFGGGTKLTVLG
notes: human IgG1
B13: COV_3053 (antibody, V domains shown)
VH: EVQLVESGGGLVQPGRSLRLSCTASGFTLGDYAMTWVRQAPGKGLEWLGIIRNKRYGETKQYAASVKGRFTFSRDDSKGIGYLQRLSLKIEDTGVYYCTREHIVRDDAFDVWGQGTTVTVSS
VL: DIVMTQSPDSLAVSLGERATINCKSSQSVLYSSNNKNYIAWYQQRPGQPPKLLIYWTSTRASGVPDRFSGSGSGTDFALTISSLQAEDVAVYYCQQYYTIPRTFGQGTKVEIK
notes: human IgG1

One test concerns the target T1, HCoV-229E spike antigens (bead panel) (HCoV-229E, UniProt P15423 16-1115).
T1 sequence: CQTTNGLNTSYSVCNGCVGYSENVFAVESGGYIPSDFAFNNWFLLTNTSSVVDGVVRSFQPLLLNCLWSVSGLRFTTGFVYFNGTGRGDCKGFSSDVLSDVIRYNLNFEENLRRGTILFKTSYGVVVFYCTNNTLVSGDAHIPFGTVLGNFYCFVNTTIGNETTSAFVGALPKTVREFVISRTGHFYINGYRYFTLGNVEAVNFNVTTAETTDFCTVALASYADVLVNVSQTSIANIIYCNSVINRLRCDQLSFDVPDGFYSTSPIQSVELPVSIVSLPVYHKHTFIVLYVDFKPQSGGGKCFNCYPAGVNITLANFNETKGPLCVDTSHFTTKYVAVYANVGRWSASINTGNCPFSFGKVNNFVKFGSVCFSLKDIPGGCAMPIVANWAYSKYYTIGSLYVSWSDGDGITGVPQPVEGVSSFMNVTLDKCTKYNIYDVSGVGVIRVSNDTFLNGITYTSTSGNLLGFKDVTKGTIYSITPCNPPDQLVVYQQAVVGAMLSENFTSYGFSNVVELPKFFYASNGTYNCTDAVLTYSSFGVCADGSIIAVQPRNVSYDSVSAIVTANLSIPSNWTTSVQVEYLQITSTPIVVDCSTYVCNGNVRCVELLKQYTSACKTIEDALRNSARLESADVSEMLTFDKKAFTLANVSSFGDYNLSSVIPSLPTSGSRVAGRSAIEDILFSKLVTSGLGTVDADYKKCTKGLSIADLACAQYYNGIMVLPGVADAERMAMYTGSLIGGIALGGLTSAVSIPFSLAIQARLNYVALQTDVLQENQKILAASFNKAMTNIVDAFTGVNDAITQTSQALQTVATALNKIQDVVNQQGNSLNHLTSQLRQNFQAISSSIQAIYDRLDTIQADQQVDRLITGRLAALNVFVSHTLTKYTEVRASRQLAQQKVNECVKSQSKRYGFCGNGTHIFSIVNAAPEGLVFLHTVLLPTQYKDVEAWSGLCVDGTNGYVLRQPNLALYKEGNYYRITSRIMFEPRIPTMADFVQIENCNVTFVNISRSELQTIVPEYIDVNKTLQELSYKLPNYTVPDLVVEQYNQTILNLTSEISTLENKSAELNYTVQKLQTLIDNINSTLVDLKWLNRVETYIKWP
Description: multiplex bead assay.
For B1, the binding result is reported as “no binding”.
As for B2, the binding result was “no binding”.
On the same count and under the same terms, the entry for B3 is “no binding”; for B4 it is “no binding”.
On the same count and under the same terms, as for B5, the entry is “no binding”; as for B6, “no binding”.
On the same count and under the same terms, the entry for B7 is “no binding”; for B8 it is “no binding”.
On to B9, for which the binding result is recorded as “no binding”.
As to B10, the binding result is recorded as “no binding”.
As to B11, the binding result is reported as “no binding”.
Same read-out and setting: the entry for B12 is “no binding”.
Same read-out and setting: as for B13, the entry is “no binding”.

Another test concerns the target T2, HCoV-NL63 spike antigens (bead panel) (HCoV-NL63, UniProt Q6Q1S2 19-1296).
T2 sequence: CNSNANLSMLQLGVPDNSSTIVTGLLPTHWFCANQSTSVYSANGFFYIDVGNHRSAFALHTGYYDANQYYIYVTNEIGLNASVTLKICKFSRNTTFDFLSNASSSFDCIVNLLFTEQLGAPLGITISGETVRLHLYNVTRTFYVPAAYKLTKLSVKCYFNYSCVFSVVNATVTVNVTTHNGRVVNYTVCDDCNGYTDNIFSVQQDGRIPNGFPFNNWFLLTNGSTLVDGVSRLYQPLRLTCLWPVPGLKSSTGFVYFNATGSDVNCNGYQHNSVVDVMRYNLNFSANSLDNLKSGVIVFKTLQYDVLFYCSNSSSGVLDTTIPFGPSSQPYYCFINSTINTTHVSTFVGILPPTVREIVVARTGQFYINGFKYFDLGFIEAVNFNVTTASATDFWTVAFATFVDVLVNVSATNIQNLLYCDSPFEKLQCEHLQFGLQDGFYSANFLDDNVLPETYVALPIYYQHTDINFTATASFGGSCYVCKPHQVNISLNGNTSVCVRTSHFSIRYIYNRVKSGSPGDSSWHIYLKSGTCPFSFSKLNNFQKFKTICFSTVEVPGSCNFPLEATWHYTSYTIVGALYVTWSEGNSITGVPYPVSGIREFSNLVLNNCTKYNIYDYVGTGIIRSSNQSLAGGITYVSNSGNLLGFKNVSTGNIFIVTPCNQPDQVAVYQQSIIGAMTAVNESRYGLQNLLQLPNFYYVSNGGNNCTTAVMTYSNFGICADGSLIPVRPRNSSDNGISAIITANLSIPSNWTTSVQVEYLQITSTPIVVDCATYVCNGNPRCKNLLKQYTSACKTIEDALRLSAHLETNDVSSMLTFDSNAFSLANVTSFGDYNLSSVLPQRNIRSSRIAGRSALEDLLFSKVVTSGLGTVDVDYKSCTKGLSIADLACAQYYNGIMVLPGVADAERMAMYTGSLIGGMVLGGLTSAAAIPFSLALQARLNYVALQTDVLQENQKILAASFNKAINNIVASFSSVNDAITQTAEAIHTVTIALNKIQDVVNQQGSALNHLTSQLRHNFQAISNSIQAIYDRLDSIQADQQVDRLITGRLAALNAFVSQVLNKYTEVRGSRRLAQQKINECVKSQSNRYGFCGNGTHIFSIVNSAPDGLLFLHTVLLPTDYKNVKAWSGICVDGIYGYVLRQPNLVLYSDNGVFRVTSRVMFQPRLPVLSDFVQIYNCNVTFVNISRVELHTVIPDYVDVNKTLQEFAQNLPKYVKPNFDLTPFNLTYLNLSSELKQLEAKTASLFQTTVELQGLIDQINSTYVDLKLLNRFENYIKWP
Briefly: multiplex bead assay.
Turning to B1, the binding result is “no binding”.
On the same count and under the same terms, the entry for B2 is “no binding”.
Regarding B3, the binding result was “no binding”.
For B4, the binding result is listed as “no binding”.
Still for that read-out and setting: the entry for B5 is “no binding”.
On to B6, for which the binding result is recorded as “no binding”.
Consider B7, for which the binding result is given as “no binding”.
The same measure, in the same setting: the entry for B8 is “no binding”.
The same measure, in the same setting: as for B9, the entry is “no binding”.
Same read-out and setting: as for B10, the entry is “no binding”; as for B11, “no binding”; as for B12, “no binding”.
Turning to B13, the binding result is “no binding”.
